In US20180086841A1 (Merck Sharp & Dohme, published 2018):
Numbering of substitutions follows the chain as printed.

B1: hCD27.131A VH9VL9 huIgG1 (antibody, V domains shown)
VH: EIQLVQSGAEVKKPGASVKVSCKASGYTFTNYGMNWVRQAPGQGLKWMGWINTNTGEPTYAEEFKGRFTFTLDTSASTAYMELSSLRSEDTAVYYCAREGDAMDYWGQGTTVTVSS
VL: DIQLTQSPSTLSASVGDRVTITCSASSSVSYMHWYQQKPGKAPKRWIYDTSKLASGVPARFSGSGSGTDYTLTISSLQPEDFATYYCQQWNSYPFTFGQGTKLEIK
B2: hCD27.131A VH7VL7 huIgG1 (antibody, V domains shown)
VH: B1 VH with V20I, R38K, S77T, M81L, L83I
VL: EIVLTQSPATLSLSPGERATLSCSASSSVSYMHWYQQKPGQAPKRWIYDTSKLASGVPARFSGSGSGTSYSLTISSLEPEDFATYYCQQWNSYPFTFGQGTKLEIK
B3: hCD27.131A VH8VL6 huIgG1 (antibody, V domains shown)
VH: B1 VH with R38K, A76I, S88N
VL: B2 VL with S69D, T84V
B4: hCD27.131A VH7VL8 huIgG1 (antibody, V domains shown)
VH: B1 VH with V20I, R38K, S77T, M81L, L83I
VL: B2 VL with L13A, A19V, S69D, L77M, T84V
B5: hCD27.131A VH6VL8 huIgG1 (antibody, V domains shown)
VH: B1 VH with R38K, A76I
VL: B2 VL with L13A, A19V, S69D, L77M, T84V
B6: hCD27.131A VH7VL6 huIgG1 (antibody, V domains shown)
VH: B1 VH with V20I, R38K, S77T, M81L, L83I
VL: B2 VL with S69D, T84V
B7: hCD27.131A VH8VL8 huIgG1 (antibody, V domains shown)
VH: B1 VH with R38K, A76I, S88N
VL: B2 VL with L13A, A19V, S69D, L77M, T84V
B8: hCD27.131A VH8VL7 huIgG1 (antibody, V domains shown)
VH: B1 VH with R38K, A76I, S88N
VL: B2 VL
B9: hCD27.131A VH6VL7 huIgG1 (antibody, V domains shown)
VH: B1 VH with R38K, A76I
VL: B2 VL
B10: Mouse Human Chimera CD27 131A-hIgG1 (antibody, V domains shown)
VH: QIQLVQSGPELKKPGETVKISCKASGYTFTNYGMNWVKQAPGKGLKWMGWINTNTGEPTYAEEFKGRFAFSLETSATTAYLQINNLKNEDTATYFCAREGDAMDYWGQGTSVTVSS
VL: QIVLTQSPAIMSASPGEKVTMTCSASSSVSYMHWYQQKSGTSPKRWIYDTSKLASGVPARFSGSGSGTSYSLTISSMEAEDAATYYCQQWNSYPFTFGSGTKLEIK
notes: also called chimeric mouse-human hCD27.131A huIgG1
B11: hCD27.131A VH6VL6 huIgG4 (antibody, V domains shown)
VH: B1 VH with R38K, A76I
VL: B2 VL with S69D, T84V
B12: hCD27.131A VH9VL9 huIgG4 (antibody, V domains shown)
VH: B1 VH
VL: B1 VL
B13: hCD27.131A VH6VL7 huIgG4 (antibody, V domains shown)
VH: B1 VH with R38K, A76I
VL: B2 VL
B14: hCD27.131A VH7VL7 huIgG4 (antibody, V domains shown)
VH: B1 VH with V20I, R38K, S77T, M81L, L83I
VL: B2 VL
B15: hCD27.131A VH7VL8 huIgG4 (antibody, V domains shown)
VH: B1 VH with V20I, R38K, S77T, M81L, L83I
VL: B2 VL with L13A, A19V, S69D, L77M, T84V
B16: hCD27.131A VH8VL6 huIgG4 (antibody, V domains shown)
VH: B1 VH with R38K, A76I, S88N
VL: B2 VL with S69D, T84V
B17: hCD27.131A VH6VL8 huIgG4 (antibody, V domains shown)
VH: B1 VH with R38K, A76I
VL: B2 VL with L13A, A19V, S69D, L77M, T84V
B18: hCD27.131A VH8VL8 huIgG4 (antibody, V domains shown)
VH: B1 VH with R38K, A76I, S88N
VL: B2 VL with L13A, A19V, S69D, L77M, T84V
B19: hCD27.131A VH7VL6 huIgG4 (antibody, V domains shown)
VH: B1 VH with V20I, R38K, S77T, M81L, L83I
VL: B2 VL with S69D, T84V
B20: hCD27.131A VH8VL7 huIgG4 (antibody, V domains shown)
VH: B1 VH with R38K, A76I, S88N
VL: B2 VL
B21: 131A chimera huIgG4 (antibody, V domains shown)
VH: B10 VH
VL: B10 VL
notes: also called chimeric mouse-human hCD27.131A huIgG4

The binders below were run against T1, human CD27 (human, UniProt P26842 21-260) (assay: flow cytometry MFI, CD4+ T cells of human PBMC, N=2 donors).
T1 construct: also called hCD27; HsCD27
Method: (§1) Labeled cells were washed by re-suspending them in 150 ul of staining buffer (SB) followed by centrifugation at 300 g for 5 minutes. Cells were then resuspended in 100 ul of SB containing primary anti-CD27 antibodies at various concentrations, incubated in the dark at 4° C. for 30 minutes, followed by washing and centrifugation steps as previously described. […] Cells were incubated for 30 minutes at 4° C. in the dark, followed by washing and centrifugation steps. Next, cells were stained with a cocktail of phenotypic antibodies for surface markers (CD3, CD4, CD8, CD11b) and incubated for 30 minutes at 4° C. in the dark, followed by washing and centrifugation steps. […] Samples were acquired in a LSR-Fortessa flow cytometer (BD Biosciences) using the high throughput sampler and data analyzed by FlowJo software (Tree Star Inc).

Binder | EC50
B1 | 0.0774 nM
B2 | 0.113 nM
B3 | 0.124 nM
B4 | 0.118 nM
B5 | 0.126 nM
B6 | 0.128 nM
B7 | 0.135 nM
B8 | 0.115 nM
B9 | 0.123 nM
B10 | 0.0664 nM

These binders were tested against T1, human CD27 (assay: flow cytometry on primary T cells).

Binder | EC50 relative to 131AVH6VL6-hIgG1
B1 | ≤ 10 % above the EC50 of 131AVH6VL6-hIgG1
B2 | ≤ 10 % above the EC50 of 131AVH6VL6-hIgG1
B3 | ≤ 10 % above the EC50 of 131AVH6VL6-hIgG1
B4 | ≤ 10 % above the EC50 of 131AVH6VL6-hIgG1
B5 | ≤ 10 % above the EC50 of 131AVH6VL6-hIgG1
B6 | ≤ 10 % above the EC50 of 131AVH6VL6-hIgG1
B7 | ≤ 10 % above the EC50 of 131AVH6VL6-hIgG1
B8 | ≤ 10 % above the EC50 of 131AVH6VL6-hIgG1
B9 | ≤ 10 % above the EC50 of 131AVH6VL6-hIgG1

Each binder was assayed against T1, human CD27 (assay: cell ELISA on human CD27 CHOK1 cells, hIgG4).
Method: (§2) Purified antibodies were assayed for binding to human CD27 expressing CHOK1 cells using a cell-based ELISA format. Human CD27 expressing CHOK1 cells were plated in 96-well tissue-culture plates in 50 μl of DMEM/F12, 10% BCS (bovine calf serum) (CHO-K1 media). Cells were plated at either 2×10⁴ cells/well two days prior to the assay or 4×10⁴ cells/well one day prior to the assay. Media was removed from the wells prior to the assay followed by incubation of mAb in 100 μL fresh culture medium at a starting concentration of 10 μg/mL and 8 step 1:5 serial dilutions (hIgG4 antibodies) or starting concentration of 50 μg/mL and 8 step 1:5 serial dilutions (hIgG1 antibodies). The antibodies were incubated for 30-60 minutes at room temperature and washed 3 times with PBS/0.05% Tween 20 using a cell ELISA washing protocol on the Biotek EL405x Select CW plate washer.

Binder | EC50
B11 | 0.101 nM
B12 | 0.13 nM
B13 | 0.132 nM
B14 | 0.084 nM
B15 | 0.086 nM
B16 | 0.097 nM
B17 | 0.103 nM
B18 | 0.129 nM
B19 | 0.042 nM
B20 | 0.088 nM

The binders below were run against T1, human CD27 (assay: flow cytometry MFI, CD8+ T cells of human PBMC, N=2 donors).
Method: as §1

Binder | EC50
B1 | 0.0721 nM
B2 | 0.111 nM
B3 | 0.113 nM
B4 | 0.118 nM
B5 | 0.124 nM
B6 | 0.127 nM
B7 | 0.131 nM
B8 | 0.111 nM
B9 | 0.11 nM
B10 | 0.0649 nM

Each binder was assayed against T1, human CD27 (assay: cell ELISA on human CD27 CHOK1 cells, hIgG1).
Method: as §2

Binder | EC50
B1 | 0.111 nM
B2 | 0.207 nM
B3 | 0.298 nM
B4 | 0.144 nM
B5 | 0.131 nM
B6 | 0.162 nM
B7 | 0.145 nM
B8 | 0.262 nM
B9 | 0.13 nM

These binders were tested against T1, human CD27 (assay: cell ELISA on transfected CHO cells).
Method: as §2

Binder | fold EC50 against 131AVH6VL6-hIgG1
B1 | ≤ 2 fold
B12 | ≤ 2 fold
B2 | ≤ 2 fold
B3 | ≤ 2 fold
B13 | ≤ 2 fold
B4 | ≤ 2 fold
B14 | ≤ 2 fold
B5 | ≤ 2 fold
B6 | ≤ 2 fold
B15 | ≤ 2 fold
B16 | ≤ 2 fold
B7 | ≤ 2 fold
B8 | ≤ 2 fold
B17 | ≤ 2 fold
B18 | ≤ 2 fold
B9 | ≤ 2 fold
B19 | ≤ 2 fold
B20 | ≤ 2 fold

The binders below were run against T2, His9G-tagged human CD27 recombinant protein (human, UniProt P26842 21-191) (assay: SPR Biacore 4000, antibody captured on anti-human Fc, His9G-tagged CD27 injected, 1:1 fit;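 further: Double-referenced SPR (blank anti-Fc surface and buffer injection subtracted), KD derived from association and dissociation rate constants, with human and cynomolgus CD27 as analytes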).
T2 construct: In-house, transient transfection of HEK293 cells; also called Human CD27/His
From the text: (§3) Flow cell spots modified with anti-human Fc antibody but lacking CD27 antibodies were used as reference. […] The chip surface was regenerated with a 30 second injection of 3M MgCl₂ after each injection cycle.
(§4) Data were double referenced by subtracting the response from a blank surface and that from a buffer injection and used for analyzing the rate constant of association (kₐ) and dissociation (kd), and the equilibrium dissociation constant KD. The resulting data sets were fitted with a Langmuir 1:1 binding model using the Biacore 4000 BIAevaluation software, version 1.0 (GE/Biacore).

Binder | Kd
B1 | 62.2 nM
B11 | 168 nM
B12 | 104 nM
B2 | 38.9 nM
B3 | 64.4 nM
B13 | 108 nM
B4 | 44.9 nM
B14 | 82.4 nM
B5 | 68.2 nM
B6 | 41.3 nM
B15 | 58.5 nM
B16 | 132 nM
B7 | 61 nM
B8 | 63.3 nM
B17 | 99.1 nM
B18 | 110 nM
B9 | 71.7 nM
B19 | 65.7 nM
B20 | 89.3 nM
B21 | 43.4 nM
B10 | 29.2 nM

Target: T3, His9G-tagged cynomolgus CD27 recombinant protein (cynomolgus, limits assumed)
T3 construct: In-house, transient transfection of HEK293 cells; also called Cyno CD27/His
T3 chain: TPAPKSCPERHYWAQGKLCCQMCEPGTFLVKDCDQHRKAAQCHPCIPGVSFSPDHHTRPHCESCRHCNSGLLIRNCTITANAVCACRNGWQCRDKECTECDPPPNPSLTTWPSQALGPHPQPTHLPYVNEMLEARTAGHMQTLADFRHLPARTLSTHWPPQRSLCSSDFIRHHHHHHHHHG
Assay: as above
From the text: as §3, §4

Binder | Kd
B1 | 105 nM
B11 | 73 nM
B12 | 72.9 nM
B2 | 31.7 nM
B3 | 46.6 nM
B13 | 82 nM
B4 | 36.5 nM
B14 | 36.7 nM
B5 | 56.5 nM
B6 | 34.8 nM
B15 | 40.1 nM
B16 | 59.7 nM
B7 | 32.3 nM
B8 | 44.1 nM
B17 | 55.2 nM
B18 | 96.7 nM
B9 | 41.9 nM
B19 | 58.2 nM
B20 | 76.8 nM
B21 | 31.2 nM
B10 | 40.4 nM
